The experiment has as its target T1, transglutaminase 3 (human, UniProt Q08188 2-693, limits assumed).
T1 sequence (looked up): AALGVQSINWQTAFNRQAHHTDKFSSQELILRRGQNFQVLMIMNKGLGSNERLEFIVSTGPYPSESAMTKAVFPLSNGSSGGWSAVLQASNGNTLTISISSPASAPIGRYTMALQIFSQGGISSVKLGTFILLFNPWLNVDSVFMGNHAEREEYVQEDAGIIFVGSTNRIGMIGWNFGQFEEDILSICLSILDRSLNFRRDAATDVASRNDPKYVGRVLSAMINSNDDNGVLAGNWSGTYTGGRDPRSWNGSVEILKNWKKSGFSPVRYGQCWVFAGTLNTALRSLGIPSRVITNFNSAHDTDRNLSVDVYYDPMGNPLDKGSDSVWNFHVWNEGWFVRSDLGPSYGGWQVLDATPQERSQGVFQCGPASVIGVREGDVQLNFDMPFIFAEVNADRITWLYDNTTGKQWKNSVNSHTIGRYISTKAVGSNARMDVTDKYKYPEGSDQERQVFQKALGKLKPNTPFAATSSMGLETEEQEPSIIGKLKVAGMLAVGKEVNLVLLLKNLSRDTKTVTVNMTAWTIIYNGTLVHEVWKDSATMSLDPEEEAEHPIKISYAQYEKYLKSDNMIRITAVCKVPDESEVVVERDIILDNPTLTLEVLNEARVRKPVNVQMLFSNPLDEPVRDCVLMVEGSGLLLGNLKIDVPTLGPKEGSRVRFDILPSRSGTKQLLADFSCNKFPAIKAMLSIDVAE
As to the kind of experiment: affinity chromatography: CLSP on CNBr-sepharose, human epidermis extract loaded with calcium chloride, eluted with EDTA, held protein sequenced. On the procedure:
The coupling efficiency was 0.95 mg of polypeptide per milliliter of balls. Human epidermis (0.83 g of abdominal skin obtained from plastic surgery and 100 g of plantar stratum corneum) was homogenized with polytron in 10 ml and 120 ml respectively of 10 mmol of Hepes buffer, pH 7.4, containing 150 mmol of sodium chloride, 0.1% (weight/volume) of triton X100 and a mixture of protease inhibitors (Complete™ EDTA-free of Roche Molecular diluted with […] of depepstatin).
The suspension is then centrifuged at 10,000 g for 10 minutes at 4° C. The supernatant is filtered at 0.22 and adjusted with 2.5 mmol of calcium chloride before passing at ambient temperature through the affinity column. The columns are then washed with 10 volumes of 10 mmol Hepes buffer, pH 7.4, containing 150 mmol of sodium chloride, 0.1% (weight/volume) of triton X100 and a mixture of protease inhibitors. The elution is carried out by using the same buffer that contains 5 mmol of EDTA instead of 2 mmol of calcium chloride.
The eluted proteins are subjected to a denaturing gel electrophoresis (SDS-PAGE) and after migration, they are colored with silver with a silver coloration kit of the Amersham Pharmacia Biotech Company and according to the recommendations of the manufacturer.

The results in this text go back to patent US20060009380A1 (L OREAL, published 2006).

B1: CLSP (calmodulin-like skin protein), the polypeptide of the invention (other)
chain: AGELTPEEEAQYKKAFSAVDTDGNGTINAQELGAALKATGKNLSEAQLRKLISEVDSDGDGEISFQEFLTAARKARAGLEDLQVAFRAFDQDGDGHITVDELRRAMAGLGQPLPQEELDAMIREADVDQDGRVNYEEFARMLAQE
notes: also called skin protein similar to calmodulin
In the case of B1, the binding result is recorded as “binds”.
